Consider three molecules from paper PMC4751086, “Structural Study of the HD-PTP Bro1 Domain in a Complex with the Core Region of STAM2, a Subunit of ESCRT-0” (PLoS ONE, 2016).

Positions count from the first letter of the chain named.

Conditions in all cases: both partners purified
Experiment [1] has as its target T1, HD-PTP(1–361) (human, UniProt Q9H3S7 1-361).
T1 construct: also called HD-PTP Bro1 domain; PTPN23; source: E. coli BL21(DE3) RIL, purified (Ni-NTA, TEV protease, gel filtration); not shown: (His)6, N-terminal, cleaved
T1 sequence (looked up): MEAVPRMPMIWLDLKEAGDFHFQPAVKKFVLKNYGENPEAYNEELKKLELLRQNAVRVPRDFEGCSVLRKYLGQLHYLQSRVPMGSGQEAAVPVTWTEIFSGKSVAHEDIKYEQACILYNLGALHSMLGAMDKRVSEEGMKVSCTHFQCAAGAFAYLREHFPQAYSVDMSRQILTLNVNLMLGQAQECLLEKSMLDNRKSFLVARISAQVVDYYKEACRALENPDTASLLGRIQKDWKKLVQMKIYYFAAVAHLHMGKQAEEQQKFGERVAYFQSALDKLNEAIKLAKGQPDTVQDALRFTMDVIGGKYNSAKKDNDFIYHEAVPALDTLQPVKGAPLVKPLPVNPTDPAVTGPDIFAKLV
Nature of the experiment: SEC; Superose 6 10/300 GL gel filtration column; mixture of HD-PTP(1–361) and STAM2 fragment; peak fractions analysed by SDS-PAGE and Coomassie staining. (SEC sorts molecules by how far they enter the pores of the column.)

The target of the next experiment is T2, HD-PTP(1–361;T145K) (human, UniProt Q9H3S7 1-361, T145K).
T2 construct: source: E. coli BL21(DE3) RIL, purified (Ni-NTA, gel filtration)
T2 sequence (looked up): T1 sequence (looked up) with T145K
Nature of the experiment: ITC; 0.5 mM peptide titrated into 50 μM protein; iTC200; 2°C as printed; 20 mM Tris-HCl (pH 7.5), 100 mM NaCl. For orientation: In ITC the heat of successive injections is recorded.

The target of experiment [2] is T1, HD-PTP(1–361). The description is as above.
The target of the next experiment is T3, HD-PTP(1–361;T145R) (human, UniProt Q9H3S7 1-361, T145R).
T3 construct: source: E. coli BL21(DE3) RIL, purified (Ni-NTA, gel filtration)
T3 sequence (looked up): T1 sequence (looked up) with T145R
The experiment is described as above.

In experiment [3] the target is T4, HD-PTP(1–361) with T145A substitution (human, UniProt Q9H3S7 1-361, T145A).
T4 construct: source: E. coli BL21(DE3) RIL, purified (Ni-NTA, gel filtration)
T4 sequence (looked up): T1 sequence (looked up) with T145A
The experiment is described as above.

B1: STAM2(260–370) (domain or fragment)
chain: not shown
notes: STAM2, human, core region, residues 260–370; also called STAM2 core region containing residues 260–370; signal-transducing adaptor molecule 2; source: E. coli BL21(DE3) RIL, purified (Ni-NTA, gel filtration)
B1: the binding result with HD-PTP(1–361) [1] is recorded as “binds”.

B2: STAM2(311–370) (domain or fragment)
chain: not shown
notes: source: E. coli BL21(DE3) RIL, purified (Ni-NTA, gel filtration)
B2: the binding result with HD-PTP(1–361) [1] is “binds”.

B3: CHMP4B(207–224) (peptide, UniProt Q9H444 207-224, looked up)
peptide: KEEEDDDMKELENWAGSM
notes: CHMP4B, residues 207–224 (18-mer; the polypeptide terminates with Met224); also called CHMP4B peptide of 18-mer (residues 207–224); charged multivesicular body protein 4B; source: synthetic peptide, bought: Peptron (Korea)
Consider B3, for which the Kd (with HD-PTP(1–361;T145K); in the experiment with HD-PTP(1–361) [2]; with HD-PTP(1–361;T145R); in experiment [3]) was less than 8 µM throughout.

As usually defined, the Kd is the free concentration of one partner at which half of the binding sites on the other are occupied at equilibrium, for simple one-to-one binding. Lower therefore signals higher affinity.
